Experimental data reported in patent publication US20090172832A1 (published 2009).

Molecular target: T1, R. rubrum RUBISCO LSU (RRrbcLSU, product of the RRrbcM gene) (Rhodospirillum rubrum, UniProt Q2RRP5 1-466)
T1 construct: The purified R. rubrum RUBISCO used as blot control is filed under this molecule too; also called R. rubrum RUBISCO protein; 55-kD RUBISCO-like protein
T1 sequence: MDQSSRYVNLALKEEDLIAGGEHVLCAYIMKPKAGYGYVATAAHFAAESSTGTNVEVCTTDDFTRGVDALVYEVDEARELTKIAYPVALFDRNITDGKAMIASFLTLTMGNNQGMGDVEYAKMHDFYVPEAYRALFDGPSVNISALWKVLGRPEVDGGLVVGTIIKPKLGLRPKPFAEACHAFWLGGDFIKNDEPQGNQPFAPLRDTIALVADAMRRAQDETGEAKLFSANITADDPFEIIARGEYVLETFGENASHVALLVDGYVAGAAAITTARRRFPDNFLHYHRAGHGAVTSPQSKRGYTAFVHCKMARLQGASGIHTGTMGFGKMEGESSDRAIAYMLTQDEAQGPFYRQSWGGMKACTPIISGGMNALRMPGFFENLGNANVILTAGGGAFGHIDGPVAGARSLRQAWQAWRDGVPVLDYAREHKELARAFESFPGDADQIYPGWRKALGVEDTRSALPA
Assay: SDS-PAGE of crude leaf extract of plant 1074 (Coomassie stain); inferred because SSU did not accumulate

B1: endogenous tobacco RUBISCO small subunit (SSU) (enzyme, Nicotiana tabacum, UniProt P69249 58-180, looked up)
chain: MQVWPPINKKKYETLSYLPDLSQEQLLSEVEYLLKNGWVPCLEFETEHGFVYRENNKSPGYYDGRYWTMWKLPMFGCTDATQVLAEVEEAKKAYPQAWIRIIGFDNVRQVQCISFIAYKPEGY
notes: Endogenous protein in leaf extracts; also called endogenous SSU; tobacco SSU
  binding result: no binding
